Where two headings read alike, the source gives them in different places. Values belong to the substance of their own block, whether it stands above or below them.
Tests used:
[1] = test system: normal and Pompe fibroblast cell lines; experiment: Cellular uptake of rhGAA in fibroblasts; assay type: cell-based; settings: for concentration that saturates cellular receptors: 16-hr incubation
Procedure: The relative cellular uptake of ATB200 and Lumizyme® rhGAA were compared using normal and Pompe fibroblast cell lines. Comparisons involved 5-100 nM of ATB200 rhGAA according to the invention with 10-500 nM conventional rhGAA Lumizyme®. After 16-hr incubation, external rhGAA was inactivated with TRIS base and cells were washed 3-times with PBS prior to harvest. Internalized GAA measured by 4MU-α-Glucoside hydrolysis and was graphed relative to total cellular protein and the results appear in FIGS. 10A-B.

[2] = cited from earlier work
Gaa KO mice = experiment: Muscle function in Gaa KO mice, 12 biweekly administrations; assay type: in vivo, mouse; settings: 20 mg/kg ERT, 10 mg/kg miglustat, FIGS. 33A-33B
Text: In FIG. 33A, * indicates statistically significant compared to Lumizyme® alone (p<0.05, 2-sided t-test). In FIGS. 34A-34G, * indicates statistically significant compared to Lumizyme® alone (p<0.05, multiple comparison using Dunnett's method under one-way ANOVA analysis).

CIMPR [3] = molecular target: T1, CIMPR (Homo sapiens, UniProt P11717); experiment: CIMPR affinity chromatography of rhGAA; assay type: binding; settings: fraction of total enzyme by GAA activity
T1 sequence (P11717 41-2491, species assumed): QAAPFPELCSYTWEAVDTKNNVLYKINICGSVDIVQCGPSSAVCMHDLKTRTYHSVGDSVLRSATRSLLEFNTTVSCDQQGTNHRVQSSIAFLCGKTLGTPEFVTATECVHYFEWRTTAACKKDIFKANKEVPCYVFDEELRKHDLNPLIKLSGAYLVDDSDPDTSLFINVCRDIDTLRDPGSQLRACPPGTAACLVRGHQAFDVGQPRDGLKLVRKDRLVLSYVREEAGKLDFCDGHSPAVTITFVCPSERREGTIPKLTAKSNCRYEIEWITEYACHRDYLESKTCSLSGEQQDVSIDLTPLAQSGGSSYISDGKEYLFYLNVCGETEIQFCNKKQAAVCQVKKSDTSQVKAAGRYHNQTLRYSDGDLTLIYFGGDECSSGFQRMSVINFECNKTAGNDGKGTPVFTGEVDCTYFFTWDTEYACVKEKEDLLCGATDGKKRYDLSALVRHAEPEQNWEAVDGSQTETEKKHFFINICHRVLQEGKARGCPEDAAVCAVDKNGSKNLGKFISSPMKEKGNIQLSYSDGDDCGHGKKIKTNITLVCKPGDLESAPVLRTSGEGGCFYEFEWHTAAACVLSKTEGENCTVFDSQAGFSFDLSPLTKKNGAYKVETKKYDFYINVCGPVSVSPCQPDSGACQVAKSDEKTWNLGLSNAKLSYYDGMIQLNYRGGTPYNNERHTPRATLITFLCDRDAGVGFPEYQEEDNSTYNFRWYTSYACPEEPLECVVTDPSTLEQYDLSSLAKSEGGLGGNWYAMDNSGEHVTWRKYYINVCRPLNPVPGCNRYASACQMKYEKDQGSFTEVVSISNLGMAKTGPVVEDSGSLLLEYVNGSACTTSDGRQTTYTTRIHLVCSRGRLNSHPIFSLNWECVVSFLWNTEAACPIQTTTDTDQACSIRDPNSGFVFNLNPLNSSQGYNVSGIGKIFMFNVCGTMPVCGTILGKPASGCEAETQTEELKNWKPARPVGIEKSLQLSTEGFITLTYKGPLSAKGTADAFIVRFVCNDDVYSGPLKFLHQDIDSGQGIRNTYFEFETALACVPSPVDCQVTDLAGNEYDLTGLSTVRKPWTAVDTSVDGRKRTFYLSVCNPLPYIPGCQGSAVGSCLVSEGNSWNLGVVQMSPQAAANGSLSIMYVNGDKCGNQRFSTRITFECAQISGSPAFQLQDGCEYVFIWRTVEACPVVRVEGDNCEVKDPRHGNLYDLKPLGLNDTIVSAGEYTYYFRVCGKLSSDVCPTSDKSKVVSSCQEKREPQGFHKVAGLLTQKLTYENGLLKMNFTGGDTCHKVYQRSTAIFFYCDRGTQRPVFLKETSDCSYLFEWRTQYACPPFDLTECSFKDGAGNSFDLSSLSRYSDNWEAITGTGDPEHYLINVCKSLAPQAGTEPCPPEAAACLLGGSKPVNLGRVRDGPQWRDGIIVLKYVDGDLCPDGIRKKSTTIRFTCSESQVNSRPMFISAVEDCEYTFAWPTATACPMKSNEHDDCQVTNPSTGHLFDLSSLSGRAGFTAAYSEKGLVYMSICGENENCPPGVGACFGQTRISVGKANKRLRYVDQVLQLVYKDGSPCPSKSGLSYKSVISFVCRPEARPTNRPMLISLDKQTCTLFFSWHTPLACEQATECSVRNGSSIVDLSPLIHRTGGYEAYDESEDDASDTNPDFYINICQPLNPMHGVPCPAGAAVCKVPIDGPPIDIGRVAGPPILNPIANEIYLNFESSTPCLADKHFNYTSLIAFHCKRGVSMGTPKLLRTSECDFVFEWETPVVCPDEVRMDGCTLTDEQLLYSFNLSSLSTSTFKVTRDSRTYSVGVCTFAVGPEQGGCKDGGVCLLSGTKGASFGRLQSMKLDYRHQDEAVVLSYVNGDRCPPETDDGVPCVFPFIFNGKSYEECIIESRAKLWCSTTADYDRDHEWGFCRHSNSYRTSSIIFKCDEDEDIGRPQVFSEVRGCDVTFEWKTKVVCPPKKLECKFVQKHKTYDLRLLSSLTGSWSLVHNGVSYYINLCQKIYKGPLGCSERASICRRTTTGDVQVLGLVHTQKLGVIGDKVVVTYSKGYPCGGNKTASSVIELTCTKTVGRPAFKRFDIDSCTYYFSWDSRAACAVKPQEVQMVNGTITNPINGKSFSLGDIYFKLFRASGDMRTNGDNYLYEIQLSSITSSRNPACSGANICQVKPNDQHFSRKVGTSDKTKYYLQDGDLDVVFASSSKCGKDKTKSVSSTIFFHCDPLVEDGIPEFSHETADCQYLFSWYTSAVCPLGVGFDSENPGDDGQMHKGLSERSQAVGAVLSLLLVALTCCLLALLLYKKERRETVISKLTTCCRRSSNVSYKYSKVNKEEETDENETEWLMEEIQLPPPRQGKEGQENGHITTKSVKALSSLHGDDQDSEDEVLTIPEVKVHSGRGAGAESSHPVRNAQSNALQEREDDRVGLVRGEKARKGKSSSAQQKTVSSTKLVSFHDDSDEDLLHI
Procedure: To evaluate the ability of the rhGAA in Myozyme® and Lumizyme®, the only currently approved treatments for Pompe disease, these rhGAA preparations were injected onto a CIMPR column (which binds rhGAA having M6P groups) and subsequently eluted with a free […] gradient. Fractions were collected in 96-well plate and GAA activity assayed by 4MU—α-glucose substrate. The relative amounts of bound and unbound rhGAA were determined based on GAA activity and reported as the fraction of total enzyme.

[4] = cynomolgus monkey, in vivo
Procedure: ATB200 toxicokinetics were measured in blood samples collected in K2EDTA tubes from animals on Days 1 and 85 at the following time points: • For Groups 1, 2, 3, and 5: Predose (prior to administration of miglustat); 1 hour from initiation of infusion; 2 hours from initiation of infusion; 2.5 hours from initiation of infusion; 3 hours from initiation of infusion; 4 hours from initiation of infusion; 6 hours from initiation of infusion; 12 hours from initiation of infusion; 26 hours from initiation of infusion; 168 hours from initiation of infusion; and 336 hours from initiation of infusion (collected prior to dosing on Day 15); and • For Group 4: Predose (prior to administration of miglustat); 1.5 hour post administration of miglustat; 2.5 hours post administration of miglustat; 3.5 hours post administration of miglustat; 4.5 hours post administration of miglustat; 6.5 hours post administration of miglustat; 12.5 hours post administration of miglustat; 26.5 hours post administration of miglustat; 168.5 hours post administration of miglustat; and 336.5 hours post administration of miglustat (collected prior to dosing on Day 15). […]
Total ATB200 protein was measured by liquid chromatography coupled to tandem mass spectrometry (LC-MS/MS). […]

[5] = in vivo
CIMPR [6] = molecular target: T1, CIMPR; experiment: CIMPR plate binding assay
Procedure: Briefly, CIMPR-coated plates were used to capture GAA. Varying concentrations of rhGAA were applied to the immobilized receptor and unbound rhGAA was washed off. The amount of remaining rhGAA was determined by GAA activity.

[7] = human, in vivo
Procedure: This is an open-label, fixed-sequence, ascending-dose, first-in-human study to evaluate the safety, tolerability, and pharmacokinetics (PK) of intravenous (IV) recombinant acid α-glucosidase (ATB200, lyophilized powder reconstituted with sterile water for injection and diluted with 0.9% sodium chloride for injection) alone and when co-administered with oral miglustat (hard gelatin capsules, 65 mg). The study will be conducted in 2 stages. In Stage 1, safety, tolerability, and PK will be evaluated following sequential single ascending doses of ATB200, administered every 2 weeks as an approximately 4 hour intravenous infusion, for 3 dosing periods at 5, 10, and 20 mg/kg. In Stage 2, safety, tolerability, and PK will be evaluated following single- and multiple-ascending dose combinations: 20 mg/kg ATB200 co-administered every 2 weeks with 130 mg miglustat (two 65 mg capsules), taken orally 1 hour prior to an approximately 4 hour intravenous infusion of ATB200, for 3 doses followed by 20 mg/kg ATB200 co-administered with 260 mg miglustat (four 65 mg capsules), taken orally 1 hour prior to an approximately 4 hour intravenous infusion of ATB200, for 3 doses.

[8] = Clinical study: ALT, AST and CPK biomarkers; assay type: in vivo, human
Procedure: Alanine aminotransferase (ALT), aspartate aminotransferase (AST) and creatine phosphokinase (CPK) levels were monitored in human patients that switched from Lumizyme® to ATB200. The patients received ascending doses of ATB200 (5, 10 and 20 mg/kg) followed by co-administration of ATB200 (20 mg/kg) and miglustat (130 and 260 mg). High levels of CPK enzyme may indicate injury or stress to muscle tissue, heart, or brain. Elevated ALT and AST are markers of liver and muscle damage from Pompe disease, respectively.

[9] = human, in vivo; remark: listed apart in the source
Text: The study will be conducted in 2 stages.
This stage will include: • Safety: review of AEs, including serious adverse events (SAEs) and IARs; review of concomitant medications and nondrug therapies; vital signs (HR, RR, BP, and temperature); brief PE; ECG; clinical safety laboratory assessments (serum chemistry, hematology, and urinalysis); and urine pregnancy test • PD: urinary Hex4 and serum CPK • Immunological: blood samples for anti-recombinant acid α-glucosidase antibody titers (anti-recombinant acid α-glucosidase total and neutralizing antibody titers and antibody cross-reactivity with alglucosidase alfa) and blood samples for measurement of pro-inflammatory cytokines and other biomarkers of immune system activation. If needed, IgE measurements will also be performed. • Serial 24-hour pharmacokinetics (PK): During Period 1 (Visit 3, Day 1), Period 2 (Visit 4, Day 15), and Period 3 (Visit 5, Day 29), blood sampling for plasma acid α-glucosidase activity levels and total acid α-glucosidase protein concentrations will be taken for all subjects.
• Safety: review of AEs, including SAEs and IARs; review of concomitant medications and nondrug therapies; vital signs (HR, RR, BP, and temperature); weight; PE; ECG; clinical safety laboratory assessments (serum chemistry, hematology, and urinalysis); and urine pregnancy test • PD: urinary Hex4 and serum CPK • Immunological: blood samples for anti-recombinant acid α-glucosidase antibody titers (anti-recombinant acid α-glucosidase total and neutralizing antibody titers, and antibody cross-reactivity with alglucosidase alfa) and blood samples for measurement of pro-inflammatory cytokines and other biomarkers of immune system activation. If needed, IgE measurements will also be performed. • Serial 24-hour PK: During Period 4 (Visit 6, Day 43 and Visit 8, Day 71) and Period 5 (Visit 9, Day 85 and Visit 11, Day 113), blood sampling for plasma acid α-glucosidase activity levels, total acid α-glucosidase protein concentrations, and miglustat concentrations will be taken for all subjects. […]

[10] = in vivo, iv, 100 mg/kg
[11] = in vivo; remark: listed apart in the source
Procedure: Pharmacokinetic data for acid α-glucosidase (ATB200), including sampling times, dosing history and plasma concentrations of acid α-glucosidase, is obtained from mice, rats and monkeys administered ATB200 by intravenous injection. […] Modeling and simulations are performed using Phoenix® NLME™ v1.3. Compartmental PK models are constructed to assess the PK of ATB200 in plasma. The models include: • Description of the relationships between plasma concentration and time; • A variance component characterizing between- and within-animal variability in model parameters; and • A component describing uncertainty in the state of knowledge about critical model components.
PK is assumed to be species independent and is scaled according to a generalized Dedrick approach that scales the disposition according to the power of an animal's body weight:
where CL=systemic clearance, V=volume of distribution, BW=body weight, p=peripheral, b and d=allometric exponents, and a and c=typical values for a BW=1. […] Nominal BW (0.025, 0.25 and 2.5 kg) are used in the analyses.
The model includes a theoretical allometric component accounting for difference in body weight across animal species on clearance (CL) and volume of distribution (Vc).

[12] = test system: Pompe fibroblasts and skeletal muscle myoblasts; experiment: Internalization by Pompe fibroblasts and skeletal muscle myoblasts; assay type: cell-based
Gaa knockout mice [13] = experiment: Exposure-response: glycogen levels in Gaa knockout mice
Procedure: Gaa knockout mice are administered acid α-glucosidase (ATB200) intravenously at doses of 5, 10 and 20 mg/kg, rising oral doses of miglustat (1, 3 and 10 mg/kg) concomitantly with intravenous doses of 5 or 10 mg/kg of ATB200 or rising oral doses of miglustat (1, 3, 5, 10, 20, and 30 mg/kg) concomitantly with intravenous doses of 20 mg/kg of ATB200.

Gaa knockout mice [14] = experiment: Glycogen clearance, ATB200 vs Lumizyme, two IV bolus administrations; assay type: in vivo, mouse; settings: ATB200 10 and 20 mg/kg; skeletal muscles
Text: Animals are given two IV bolus administrations (every other week); tissues are harvested two weeks after the last dose and analyzed for acid α-glucosidase activity and glycogen content.

[15] = cynomolgus monkey, in vivo; remark: listed apart in the source
Procedure: Total anti-drug antibody (ADA) and neutralizing antibody (NAb) levels are measured in plasma. Blood samples (approximately 1.6 mL) were collected in K2EDTA tubes from all animals once during acclimation, predose (prior to administration of miglustat) and on Days 1, 85 and 99. Samples were maintained on wet ice until processed. Plasma was obtained by centrifugation at 2° C. to 8° C. and aliquots (approximately 0.2 mL) were transferred to polypropylene vials, and stored frozen at −60° C. to −86° C. within one hour from blood collection. Analysis of samples for ADA was conducted on samples collected from animals in Groups 1, 2, 3, and 5 (miglustat only samples were not analyzed). Analysis for neutralizing antibodies was conducted using an enzyme assay with the fluorogenic substrate 4-methylumbelliferyl-α-D-glucopyranoside (4MU-Glc).

cynomolgus monkeys = experiment: 13-week toxicity study in cynomolgus monkeys; settings: once every other week for 13 weeks
Procedure: Animals were acclimated to the study room for 18 (females) to 19 (males) days. On the final day of acclimation, animals weighed between 2.243 kg and 5.413 kg and were 2 to 3 years of age.
ATB200 is formulated in 25 mM sodium phosphate buffer, pH 6 containing 2.92 mg/mL sodium chloride, 20 mg/mL mannitol, and 0.5 mg/mL polysorbate 80 (formulation buffer). Test article (ATB200 or miglustat) and control article/vehicle (formulation buffer) were administered once every other week for 13 weeks, starting on Day 1 and ending on Day 85. ATB200 and the control article/vehicle were administered by 2 hour (±10 minute) intravenous (IV) infusion at 0 mg/kg (Group 1, control article), 50 mg/kg (Group 2), or 100 mg/kg (Groups 3 and 5). Miglustat was administered nasogastrically in sterile water for injection, USP, at 25 mg/kg (Group 2) or 175 mg/kg (Groups 3 and 4), 30 minutes (±2 minutes) prior to the start of the infusion for ATB200, when given in combination. The dosing volume across all groups was 10 mL/kg.
Parameters assessed during the in-life phase of the study included body weights, food consumption, clinical observations, detailed clinical observations, physical examinations, electrocardiography, ophthalmic assessments, clinical pathology (hematology, coagulation, serum chemistry), anti-drug antibody (ADA) assessment, neutralizing ADA assessment, urinalysis, and plasma toxicokinetics (TK) for miglustat and ATB200 activity and total protein. Terminal necropsy of animals was performed on Day 99 (14 days after the last dose administration). At necropsy, gross observations and organ weights were recorded, and tissues were collected for microscopic examination.

Gaa knockout mice [16] = experiment: Muscle physiology and morphology in Gaa-knockout mice; assay type: in vivo, mouse; settings: 20 mg/kg rhGAA IV every other week, miglustat 10 mg/kg oral where co-administered
[17] = one patient, switched from Lumizyme®, ATB200 5, 10, 20 mg/kg then 20 mg/kg + miglustat 130 and 260 mg

rhGAA activity eluted prior to addition of M6P (did not bind to the CIMPR) (CIMPR [3]): 78%
rhGAA eluted with M6P / containing M6P (CIMPR binding) (CIMPR [3]): 22%
Substance: Lumizyme®: conventional rhGAA product (alglucosidase alfa), Genzyme
concentration that saturates cellular receptors [1]: about 250 nM
uptake efficiency constant (Kuptake) ([1]; extrapolated, FIG. 10C): 56 nM
AUC ([2]; 20 mg/kg dose, reported): ~2700 µg·h/mL
systemic clearance ([2]; Week 52, repeated dosing, late-stage Pompe disease, product label): 601 mL/h
half-life ([2]; product label): 2.4 h
functional muscle strength (grip strength and wire hang tests) (Gaa KO mice): observed to decline

Substance: ATB200
mean terminal half-life (t1/2β) [4]: 1.70 to 11.1 h
time to maximal ATB200 plasma concentration (tmax) [4]: approximately 2 hours
apparent plasma half-life t1/2 [5]: ~45 m
CIMPR binding compared with Lumizyme® (CIMPR [6]; FIG. 9A): bound to CIMPR significantly better than Lumizyme®
Kd (CIMPR [6]; M6P receptor plate binding assays): 2 to 4 nM
concentration that saturates cellular receptors [1]: about 20 nM
internalization into normal and Pompe fibroblast cells ([1]; vs Lumizyme®): internalized to a greater degree than conventional Lumizyme® rhGAA
adverse events [7]: generally mild and transient
infusion-associated reactions [7]: no infusion-associated reactions
serious adverse events [7]: no serious adverse events (SAEs)
reduction in ALT ([8]; another patient, same regimen): 11%
reduction in AST ([8]; another patient, same regimen): 22%
reduction in CPK ([8]; another patient, same regimen): 31%
reduction in ALT [8, 17]: 34%
reduction in AST [8, 17]: 28%
reduction in CPK [8, 17]: 44%
Volume of distribution [9]: 3.5 to 5.7 L
dose proportionality of exposures [9]: slightly greater than dose proportional exposures
tmax (median) ([9]; 20 mg/kg): 4.0 h
AUC [10]: 5330 µg·h/mL
Central volume of distribution (Vc) [11]: 0.0101 × (BW/0.25)^0.83 L
Peripheral clearance (CLd) [11]: 0.00029 × (BW/0.25)^0.78 L/h
Peripheral volume of distribution (V2) [11]: 0.000653 × (BW/0.25)^0.83 L
Systemic clearance (CL) [11]: 0.00957 × (BW/0.25)^0.78 L/h
Kupdate (internalization) [12]: 7 to 14 nM
tissue glycogen depletion (Gaa knockout mice [13]; 5, 10 and 20 mg/kg IV): deplete tissue glycogen in acid α-glucosidase (Gaa) knockout mice in a dose-dependent fashion
Glycogen, median (Gaa knockout mice [13]; ATB200 5 mg/kg monotherapy, Study #1): 307 μg/mg protein
Glycogen, median (Gaa knockout mice [13]; ATB200 5 mg/kg monotherapy, overall median): 307 μg/mg protein
Glycogen, median (Gaa knockout mice [13]; ATB200 10 mg/kg monotherapy, Study #1): 259 μg/mg protein
Glycogen, median (Gaa knockout mice [13]; ATB200 10 mg/kg monotherapy, overall median): 259 μg/mg protein
Glycogen, median (Gaa knockout mice [13]; ATB200 20 mg/kg monotherapy, Study #1): 157 μg/mg protein
Glycogen, median (Gaa knockout mice [13]; ATB200 20 mg/kg monotherapy, Study #3): 195 μg/mg protein
Glycogen, median (Gaa knockout mice [13]; ATB200 20 mg/kg monotherapy, overall median): 181 μg/mg protein
glycogen reduction vs Lumizyme® 20 mg/kg (Gaa knockout mice [14]): significantly better reduction of glycogen levels in skeletal muscles than Lumizyme®
anti-drug antibody (ADA) incidence [15]: 100%
test article-related changes (survival, clinical observations, body weight, ECG, clinical pathology, organ weights, histopathology) (cynomolgus monkeys): no changes attributable
No-Observed-Adverse-Effect-Level (NOAEL) (cynomolgus monkeys; 2 hour infusion, with or without miglustat, highest dosage tested): 100 mg/kg/infusion
lysosome proliferation (LAMP1) (Gaa knockout mice [16]; FIG. 20): reduction in lysosome proliferation in heart, diaphragm and skeletal muscle (soleus) tissue compared to conventional treatment with alglucosidase alfa
punctate glycogen levels (PAS) (Gaa knockout mice [16]; FIG. 21): reduction in punctate glycogen levels in heart and skeletal muscle (soleus) tissue compared to conventional treatment with alglucosidase alfa
